We go through four molecules from patent US5972902, “DNA encoding human IL-6 receptor antagonist and protein encoded thereby” (dated 1999).

In assay [1] the target is T1, hIL-6 receptor (human, UniProt P08887).
Assay [2] has as its target T1, hIL-6 receptor. In words: receptor binding assay by the method of Savino et al. 1994. The method, then:
The proteins IL-6 DFRD/D160R (coded by the cDNA described in SEQ ID NO:4), IL-6 DFRD/W157R/D160R (coded by the cDNA described in SEQ ID NO:5) and IL-6 DFRD/T162D (coded by the cDNA described in SEQ ID NO:6) were produced according to the state of the art, as described (Arcone, R., Pucci, P., Zappacosta, F., Fontaine, V., Malorni, A., Marino, G., and Ciliberto, G., Eur. J. Biochem. 198, 541–547, 1991). The ability of the mutants to bind to the hIL-6 receptor was measured using state of the art methods, as described (Savino, R., Lahm, A., Salvati, A. L., Ciapponi, L., Sporeno, E., Altamura, S., Paonessa, G., Toniatti, C., Ciliberto, G., EMBO J. 13, 1357–1367, 1994). Table 1 below gives the receptor binding levels for wild type IL-6 and for the mutant forms obtained as described in example 1.

For assay [3], the target named is gp130 (Homo sapiens (Human), UniProt P40189). Nature of the assay: cell-based or functional assay.

Substitutions are numbered along the chain they refer to. In names and notes the source's numbering stands.

Consider Sant7 (ligand), for which, in assay [1], the 90% inhibition of interleukin-6 activity on hepatoma cells Hep3B (4 ng/ml wild type IL-6) is 30 ng/mL; the 90% inhibition of interleukin-6 activity on myeloma cells XG-1 (IL-6-dependent growth, 0.1 ng/ml wild type IL-6) is 35 ng/mL; the 90% inhibition of interleukin-6 activity on myeloma cells XG-2 (IL-6-dependent growth, 0.5 ng/ml wild type IL-6) was found to be 950 ng/mL.

B1: IL-6 DFRD/D160R (ligand)
chain: PVPPGEDSKDVAAPHRQPLTSSERIDKQIRDILDFISALRKETCNKSNMCESSKEALAENNLNLPKMAEKDGCFQSGFNEETCLVKIITGLLEFEVYLEYLQNRFESSEEQARAVQMRTKDLIQFLQKKAKNLDAITTPDPTTNASLLTKLQAQNQWLQRMTTHLILRSFKEFLQSSLRALRQM
Turning to B1, in assay [2], the “ability to bind to the IL-6 receptor (% of wild type)” value (shortened to “ability to bind … (% of wild type)”) worked out at 137%.

B2: IL-6 DFRD/T162D (ligand)
chain: B1 chain with R160D, T162D
For the molecule B2, the “ability to bind … (% of wild type)” value in assay [2] worked out at 39%. In addition, the “Biological activity on human hepatoma cells” value in assay [3] turned out to be 0%.

B3: IL-6 DFRD/W157R/D160R (ligand)
chain: B1 chain with W157R
Regarding B3, the “ability to bind … (% of wild type)” value in assay [2] was 130%. Also, the “Biological activity on human hepatoma cells” value in assay [3] amounted to 0%.
